B1: ZBTB22 (parent)
chain: RPFDCPVCNKKFKMKHHLTEHMKT

Variants of: B1
Experiment: protein stability index of a GFP-peptide fusion (GPS, HEK-293T) (PSI 1-6); higher = more stable
Conditions: c terminus: a fixed tail appended
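Further: lentivirally expressed fusions sorted by FACS into six bins by GFP to DsRed ratio, PSI derived from sequencing read proportions per bin multiplied by bin number.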

Protein stability index, by site and new letter:
K10: T 2.96 | I 2.03 | R 2.37 | Q 2.21 | Y 2.29 | E 3.01 | A 2.52 | L 2.19 | P 2.31 | W 1.7 | D 2.43 | S 2.63 | M 2.46 | V 2.11 | F 2.34 | H 2.47 | N 2.45 | G 2.25 | C 2.49
H17: P 2.19 | F 1.73 | T 2.15 | E 3.42 | N 2.62 | C 2.25 | W 2.08 | D 3.07 | R 2.18 | M 2.42 | K 3.1 | G 1.74 | Y 1.95 | A 2.17 | S 2.42 | L 1.94 | Q 2.74 | I 1.79 | V 2.24
V7: Q 2.45 | D 2.82 | F 3.21 | G 3.06 | W 2.85 | S 2.77 | N 2.48 | C 3.91 | H 3.27 | M 2.25 | R 2.39 | A 2.21 | T 2.47 | P 2.7 | Y 3 | E 3.58 | I 3.09 | L 2.53 | K 2.96
K13: T 3.12 | R 2.33 | G 2.6 | F 2.33 | V 2.9 | I 2.14 | P 2.74 | C 4.49 | Y 2.72 | S 2.91 | M 2.27 | Q 3.12 | A 2.85 | E 3.31 | H 2.65 | D 3.45 | L 2.89 | W 2.58 | N 2.29
P6: G 2.1 | L 2.68 | E 2.85 | N 2.68 | I 2.03 | V 2.37 | M 2.03 | T 2.45 | Q 2.32 | C 2.21 | S 2.42 | F 2.15 | A 2.65 | K 2.9 | Y 2.25 | D 3.46 | H 2.27 | W 1.86 | R 2.12
F3: R 1.98 | W 2.57 | D 2.93 | L 2.35 | N 3.06 | S 2.58 | Y 3.1 | V 2.85 | C 2.98 | P 2.74 | A 2.58 | Q 2.86 | M 2.45 | H 2.56 | K 2.61 | E 2.6 | I 2.55 | T 3.09 | G 2.49
F12: N 1.96 | A 2.44 | T 2.64 | Q 2.6 | P 2.5 | G 2.65 | S 2.53 | E 3.22 | I 2.49 | L 2.38 | R 1.83 | W 2.02 | C 4.09 | M 2.78 | H 2.6 | K 2.1 | Y 2.4 | D 2.22 | V 2.04
P2: Y 2.6
E20: L 1.83 | F 2.21 | C 2.83 | H 2.44 | I 2.21 | D 2.99 | K 3.1 | A 2.78 | G 2.73 | M 2.62
L18: C 4.01 | F 2.7 | A 2.93 | D 2.39 | M 2.19 | P 2.37 | T 2.67 | V 3.5 | E 2.78 | H 3.08 | S 2.44 | Y 2.25 | W 2.59 | R 2.89 | Q 2.58 | K 2.78 | N 2.59 | I 2.1 | G 3.36
N9: M 2.54 | P 2.43 | S 2.43 | L 2.83 | T 2.27 | H 3.23 | K 3.23 | C 2.43 | I 1.92 | A 2.95 | Q 2.33 | F 2.27 | W 1.49 | G 3.59 | R 2.03 | E 3.36 | D 3.13 | Y 2.07 | V 2.06
M14: C 3.9 | F 2.84 | Q 3.17 | A 3.09 | G 2.69 | T 3.75 | I 2.35 | E 3.72 | Y 3.1 | K 2.93 | N 3.89 | L 2.46 | W 2.26 | S 3.96 | H 3.48 | R 3.14 | V 2.58 | D 3.75 | P 2.5
C5: H 2.78 | V 2.61 | D 3.21 | M 2.9 | S 3.15 | E 3.76 | T 3.71 | W 2.41 | K 3.19 | I 2.64 | P 3.23 | N 3 | Y 2.93 | R 3.21 | L 2.6 | A 2.51 | Q 2.94 | G 3.3 | F 2.66
K15: V 2.62 | M 2.24 | D 2.85 | P 2.67 | H 2.24 | T 1.87 | G 2.78 | C 4.13 | I 1.76 | R 2.19 | F 2.39 | A 2.03 | S 2.22 | Q 2.26 | N 2.12 | W 2.47 | L 2.65 | E 3.73 | Y 2.37
H16: E 3.27 | R 2.29 | T 2.39 | V 2.08 | N 2.71 | F 1.9 | M 2.71 | W 2.27 | P 2.25 | L 2.56 | D 2.56 | Y 2.28 | C 2.91 | S 2.83 | A 2.59 | Q 2.7 | I 2.08 | G 2.11 | K 2.55
T19: K 2.48 | Y 2.41 | I 3.07 | A 2.89 | D 3.19 | S 2.35 | Q 2.33 | P 2.48 | V 3 | E 3.39 | C 4.25 | R 3.34 | N 2.88 | L 2.8 | G 3.17 | H 2.8 | W 2.02 | F 2.28 | M 3.18
D4: P 1.71 | Y 3.25 | W 2.6 | C 3.54 | G 2.73 | A 3.31 | H 2.87 | R 3.1 | V 3.54 | K 3.28 | E 3.6 | N 2.88 | L 2.92 | T 3.43 | I 3.62 | Q 3.46 | S 3.5 | M 3.5 | F 2.95
K11: G 2.43 | P 2.34 | R 2.8 | I 2.36 | Q 2.31 | N 2.79 | M 1.84 | Y 2.17 | V 2.52 | A 2.23 | E 2.89 | D 2.55 | C 2.44 | S 3.12 | L 2.25 | T 2.91 | F 1.8 | H 2.85 | W 2.21
C8: M 2.93 | Y 2.9 | S 3.03 | A 2.99 | D 3.25 | R 3.08 | Q 2.81 | G 2.8 | L 2.92 | T 3.48 | H 3 | K 3.34 | N 2.98 | E 2.97 | I 2.72 | F 2.26 | W 2.42 | V 3.5 | P 2.62
